According to PMC3548793, “CK2 Phosphorylates Sec31 and Regulates ER-To-Golgi Trafficking” (PLoS ONE, 2013):
Changes are numbered by the printed parent chain. Names and notes keep the numbering of the source.

B1: FLAG-tagged wild type (WT) Sec31 (natural protein, human, UniProt O94979 1-1220, looked up)
chain: MKLKEVDRTAMQAWSPAQNHPIYLATGTSAQQLDATFSTNASLEIFELDLSDPSLDMKSCATFSSSHRYHKLIWGPYKMDSKGDVSGVLIAGGENGNIILYDPSKIIAGDKEVVIAQNDKHTGPVRALDVNIFQTNLVASGANESEIYIWDLNNFATPMTPGAKTQPPEDISCIAWNRQVQHILASASPSGRATVWDLRKNEPIIKVSDHSNRMHCSGLAWHPDVATQMVLASEDDRLPVIQMWDLRFASSPLRVLENHARGILAIAWSMADPELLLSCGKDAKILCSNPNTGEVLYELPTNTQWCFDIQWCPRNPAVLSAASFDGRISVYSIMGGSTDGLRQKQVDKLSSSFGNLDPFGTGQPLPPLQIPQQTAQHSIVLPLKKPPKWIRRPVGASFSFGGKLVTFENVRMPSHQGAEQQQQQHHVFISQVVTEKEFLSRSDQLQQAVQSQGFINYCQKKIDASQTEFEKNVWSFLKVNFEDDSRGKYLELLGYRKEDLGKKIALALNKVDGANVALKDSDQVAQSDGEESPAAEEQLLGEHIKEEKEESEFLPSSGGTFNISVSGDIDGLITQALLTGNFESAVDLCLHDNRMADAIILAIAGGQELLARTQKKYFAKSQSKITRLITAVVMKNWKEIVESCDLKNWREALAAVLTYAKPDEFSALCDLLGTRLENEGDSLLQTQACLCYICAGNVEKLVACWTKAQDGSHPLSLQDLIEKVVILRKAVQLTQAMDTSTVGVLLAAKMSQYANLLAAQGSIAAALAFLPDNTNQPNIMQLRDRLCRAQGEPVAGHESPKIPYEKQQLPKGRPGPVAGHHQMPRVQTQQYYPHGENPPPPGFIMHGNVNPNAAGQLPTSPGHMHTQVPPYPQPQPYQPAQPYPFGTGGSAMYRPQQPVAPPTSNAYPNTPYISSASSYTGQSQLYAAQHQASSPTSSPATSFPPPPSSGASFQHGGPGAPPSSSAYALPPGTTGTLPAASELPASQRTGPQNGWNDPPALNRVPKKKKMPENFMPPVPITSPIMNPLGDPQSQMLQQQPSAPVPLSSQSSFPQPHLPGGQPFHGVQQPLGQTGMPPSFSKPNIEGAPGAPIGNTFQHVQSLPTKKITKKPIPDEHLILKTTFEDLIQRCLSSATDPQTKRKLDDASKRLEFLYDKLREQTLSPTITSGLHNIARSIETRNYSEGLTMHTHIVSTSNFSETSAFMPVLKVVLTQANKLGV
notes: Sec31a, human, cDNA clone KIAA 0905 from Kazusa DNA Research Institute, subcloned into p3×FLAG-CMV; In the cells partly phosphorylated (S527, S799, S1163, T1165 found by mass spectrometry on endogenous Sec31); also called FLAG-Sec31; human Sec31a; source: HEK293, transfected, in lysate
B2: FLAG-tagged Sec31 S527A/S799A (natural protein, human, UniProt O94979 1-1220, looked up)
chain: B1 chain with S527A, S799A
notes: Sec31a, human, cDNA clone KIAA 0905, point mutations by QuikChange; also called S527/S799; source: HEK293, transfected, in lysate

Molecular target: T1, GFP-tagged Sec23 (UniProt Q15436 1-765)
T1 construct: Sec23a; plasmid YFP-Sec23a was a gift; The results and legends call it GFP-tagged Sec23; the only Sec23 plasmid named in the methods is YFP-Sec23a; also called GFP-Sec23; YFP-Sec23a; source: HEK293, transfected, in lysate
Test: co-IP; HEK293 cells co-transfected with FLAG-tagged Sec31 (WT or mutants) and GFP-tagged Sec23 or GFP-Sec13; GFP-tagged protein immunoprecipitated with anti-GFP beads, blot with anti-FLAG; 10 mM HEPES-KOH pH 7.4, 100 mM KCl, 0.1 mM DTT, 2.5 mM MgCl2, 1% Triton X-100, 30 min at 4°C; in Figure 6 cells transfected two days before with or without siRNA1 to CK2 alpha1
Conditions: partners not purified

T1 sequence (Q15436 whole entry): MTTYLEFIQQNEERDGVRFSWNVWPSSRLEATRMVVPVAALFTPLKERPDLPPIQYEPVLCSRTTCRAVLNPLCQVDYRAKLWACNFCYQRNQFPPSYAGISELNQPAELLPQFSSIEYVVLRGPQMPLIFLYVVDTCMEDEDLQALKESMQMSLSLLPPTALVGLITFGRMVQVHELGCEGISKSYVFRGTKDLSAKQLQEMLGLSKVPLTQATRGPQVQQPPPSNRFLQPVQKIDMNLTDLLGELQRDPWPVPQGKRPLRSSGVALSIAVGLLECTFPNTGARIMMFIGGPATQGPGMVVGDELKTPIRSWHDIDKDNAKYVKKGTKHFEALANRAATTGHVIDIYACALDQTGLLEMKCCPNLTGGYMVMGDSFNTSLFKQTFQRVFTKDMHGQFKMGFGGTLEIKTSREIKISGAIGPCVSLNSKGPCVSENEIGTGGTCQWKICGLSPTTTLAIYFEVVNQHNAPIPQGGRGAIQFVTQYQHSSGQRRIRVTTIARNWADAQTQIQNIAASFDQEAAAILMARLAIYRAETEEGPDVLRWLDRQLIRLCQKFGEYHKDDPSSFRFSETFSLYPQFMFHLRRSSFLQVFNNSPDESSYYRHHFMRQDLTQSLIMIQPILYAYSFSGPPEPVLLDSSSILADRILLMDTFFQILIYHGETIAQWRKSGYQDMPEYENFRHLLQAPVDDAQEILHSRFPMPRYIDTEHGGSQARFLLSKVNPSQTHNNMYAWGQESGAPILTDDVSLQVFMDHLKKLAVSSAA

Row | Binder | fold change of Sec31 co-precipitated with Sec23, CK2 depleted by siRNA1 against not depleted | fold change of Sec31 co-precipitated with Sec23 against wild type
1 | B1 | ~3 fold | 
2 | B2 |  | 3 fold
